Data published in the nanobody polyreactivity screen of Harvey et al. (2022).

Test: yeast display, Sf9 membrane polyspecificity reagent, FACS + sequencing; frameworks hold sequencing errors
Outline: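 Polyreactivity labels are assigned by the sorting gate from which each nanobody was recovered. The gates were low and high (top ~1%), set on anti-HA fluorescence for expression and streptavidin fluorescence for reagent binding. Before sorting, galactose-induced (36–48 hours) yeast display cells were stained for 1 hour at 4 °C with 10% biotinylated, detergent-solubilized Sf9 membrane reagent.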

Sequence | polyreactivity (PSR sort gate)
PVQLVESGGGLVQAGGSLRLSCAASGIIFVKYAMGWYRQAPGKERELVAAISTRGGSTYYADSVKGRFTISRDNAMNTVYLQMNSLKPEDTAVYYCAADATRKSQLPNTVPYDYWGQGTQVTVSS | high polyreactivity
PVQLVESGGGLVQAGGSLRLSCAASGSTFPYYDMGWYRPAPGKEREMVAAISASTGSTYYADSVKGRFTISRDKAKITVYLHMYSLKPEVTAVYYCAAAYYYWYTAYDYWGQGTQVTVSS | high polyreactivity
PVQLVESGGGLVQAGGSLRLSCAASGSTFVVYAMGWYRQAPGKERELVAAITSGVSTNYADSVKGRFTISRDNAKNTVYLQMNSLKPEDTAVYYCNKDVRPAYRWYDYWGQDTQVTVSS | low polyreactivity
PVQLVESGGVLVQAGCILRLSCAASGSTFYGYAMGWYRQAPGKERELVAANTSTVITDYADSVKGRFTISRDNAKNTFYFQMNSLKPEVPAVYDCNKERATSVTAEFRGDDAYWVQGTQVTVSS | low polyreactivity
QAELVESGGGLVQAGGSLRLSCAASGFTFTAYAMGWYRQAPGKERELVAAISYRGGRTNYAYSVKGRFTISRDNAKNTVYLQMNSLKPEDTAVYYCAARPRISTREMDYWGQGTQVTVSS | high polyreactivity
QAQLQESCGSLVQAGGGQRLSCAASGYISVGTVIGWYRQAPSKERELVASIDQGANTNYADSVKGRFTISRDNAKNNVYLKMNSLKPEDTAVYYCATESTYILNYWGQGTQVTVSS | low polyreactivity
QAQLQESGGSLVQAGGGLRLSCAASGYISVGSVMGWYRQAPSKERELVASIDQGANTNYADSVKGRFTISRDNAKNNVYLQMNSLKPEDTAVYYCATVTTYILNYWGQGTQVTVCS | low polyreactivity
QAQLQESGGSLVQAGGGLRLSCAASGYSSVGSVMGWYRQAPSKEREHVASIDQGANTNYADSVKGRFTISRDNAKNNVYLQMTSLKPEDTAVYYCATETTYILNYWGQGTQVTVSS | low polyreactivity
QAQLQESGGSLVQAGGRLRLSCAASGYISVGSVMGWYRQAPSKERELVASIDQVANTNYADSVKGRFTISRDNAKNNVYLQMNSLKPEDTAVYYCATETTYILNYWGQVTQVTVSS | low polyreactivity
QAQLVESGGGLVQAGGSLRLICAASGSTFGVNAMGWYTQAPGKERELVAIITSTTYADSVKGRFTISRDNAKNTVYLQMNSLKPEDTAVYYCAKVQERVTKGRFYLLEYYWGQGTQVTVSS | low polyreactivity
QCQLVVSGGGLVQAGGSLRISCSASGSTFGVYSMGWYRQAPGKERELFATINSGGSTNYADSVKGRFTISRDNAKNTVYLQMNSLKPEDTAVYYCASGPFWQDFYVYEYDYWGQGTQVTVSS | low polyreactivity
QDHLVESGGCLVQAGGSLRLSCSASGRIFRYYAMGWYRHAPGKERELVAAIRNGGSTYYADSVKGRFTISRDNAKNTVYLQMNSLKPEDTAVYYCAAGYNYVSHRCGDWGQGSQVTVSS | high polyreactivity
QDHLVESGGGLVHAGGRLRLSCAASVRIFTAYAMGWYRQAPGTERELVPAISSGDSTYSADSVKGRFTISRDNAKNSVYLQMNSLKPVVTAVYSCATGVYPDFEYVSWGQGTQVTGSS | low polyreactivity
QDHLVESGGGLVQAGCSLRLTCAASGSIFIPNAMGWYRQAPGKERYLVAAIRSGGSSYYADSVKGRFTISRDNAKNTVYLQMNSLKPEDTAVYYCAADTYTYYYYLARYYYWGQGTQVTVSS | low polyreactivity
QDHLVESGGGLVQAGGSLRLSCAASGRIFFGYAMGWYRQATGKERELVATISYNDTSTYYADSVKGRFTISRDNAKNTVYLQMNCLKPEDTAVNYCSKSLGAPASDVYWGQGTQVTVSS | low polyreactivity
QDLLVESAGGLVQAGGSLRLSCAASGRNFPYKAMGWYRPAPGKERELVAAISSGGSTNYADSVKGRFTTSRDNAKNTVYLQMNSLKPEDTAVYYCAVGYSYYPSDEFDYWGQGTQVTVSS | low polyreactivity
